In one test the test system is SPS domain. Kind of test: SPS phosphorylation detected by anti pSPS Ab Western blot. Format: cell-based. The following applies: COS7 cells, stimulated with VOOH, TPA, EGF or TGFβ, immunoprecipitation and Western blot. As for the experimental part:
FIGS. 4A-4I are autoradiographs characterizing SPS phosphorylation using an Ab to the phosphorylated SPS domain. FIG. 4A illustrates an elevation of pSPS detection upon stimulation. COS cells were transfected with WT-GFP-ERK2. Twenty-four hr after transfection, the cells were serum-starved for 16 hr and subsequently treated with the general stimulator VOOH (V, 100 μM Na3VO4 and 200 μM H2O2, 15 min), TPA (T, 250 nM, 15 min), EGF (E, 50 ng/ml for 15 min), or left untreated (NT). The GFP-ERK2 was immunoprecipitated with anti GFP Ab, extensively washed, and the IP was then subjected to Western blotting with anti phospho SPS-ERK (αphoSPS-ERK) and anti general ERK (αgen-ERK) Abs. FIG. 4B is a time course of SPS phosphorylation. COS7 cells overexpressing WT-GFP-ERK2 were serum starved followed by EGF stimulation for the indicated time points. The lysates were then subjected to Western blot analysis as in FIG. 4A. […] SPS phosphorylation was detected using the anti pSPS Abs, and this was compared to the amount of genral ERKs detected by αgERK. […] SPS-phosphorylation was detected using αpSPS and αgERK Abs. […] The phosphorylation (^32P-ERK2) of ERK and its mutants was detected by autoradiography. […]
FIG. 9B is an autoradiograph illustrating that stimulation elevates pSPS phosphorylation of 2GFP-SPS construct. […] The total amount of immunoprecipitated 2GFP-SPS was detected with αGFP Ab. […]
In general terms: Immunoblotting shows a protein as a band on a membrane.

For the next test, the system named is CHO cells. The experiment in a line: Microscopy of SMAD3 and MH2 constructs (subcellular localization). Format: cell-based. As to conditions: overexpressed in CHO cells, fluorescence microscopy. From the text: FIGS. 11A-11D are photomicrographs illustrating that mutation of SPS prevents the nuclear translocation of full length SMAD3. CHO cells overexpressing either Flag-SMAD3 (SMAD3) or its AAA mutant (AAA-SMAD3) were fixed and stained both with anti Flag Ab and DAPI.
FIGS. 12A-12F are photomicrographs illustrating that mutants of the SPS domain modulate the subcellular translocation of the MH2 region of SMAD3. CHO cells overexpressing MH2 domain of SMAD3 (WT-MH2), or the AAA (AAA-MH2) and DPD mutant (MH2-DPD) were fixed and visualized under florescent microscope.
Immunofluorescence Microscopy. Cells were fixed (30 min in 3% paraformaldehyde in PBS or 10 min with ice-cold methanol), followed by 5-min permeabilization with 0.2% Triton X-100 in PBS (23° C.). The fixed cells were sequentially incubated with the appropriate Abs (45 min) followed by rhodamine-conjugated secondary Abs (45 min) and DAPI. Slides were visualized using a fluorescence microscope (Nikon, Japan) at 400× magnifications.
Therefore, it seems likely that the SPS of SMAD3 operated similarly to that of ERK2. To examine whether this SPS of SMAD3 is involved in nuclear translocation WT-Flag-SMAD3 and a Flag-SMAD3 in which the SPS domain was replaced with three Ala residues (AAA-SMAD3) were overexpressed in CHO cells and their localization examined.

B1: WT-Flag-SMAD3: full length FLAG-SMAD3 (protein)
chain: MSSILPFTPPIVKRLLGWKKGEQNGQEEKWCEKAVKSLVKKLKKTGQLDELEKAITTQNVNTKCITIPRSLDGRLQVSHRKGLPHVIYCRLWRWPDLHSHHELRAMELCEFAFNMKKDEVCVNPYHYQRVETPVLPPVLVPRHTEIPAEFPPLDDYSHSIPENTNFPAGIEPQSNIPETPPPGYLSEDGETSDHQMNHSMDAGSPNLSPNPMSPAHNNLDLQPVTYCEPAFWCSISYYELNQRVGETFHASQPSMTVDGFTDPSNSERFCLGLLSNVNRNAAVELTRRHIGRGVRLYYIGGEVFAECLSDSAIFVQSPNCNQRYGWHPATVCKIPPGCNLKIFNNQEFAALLAQSVNQGFEAVYQLTRMCTIRMSFVKGWGAEYRRQTVTSTPCWIELHLNGPLQWLDKVLTQMGSPSIRCSSVS
modifications: left off: small tags and cut ends
Turning to B1, the “SPS phosphorylation upon stimulation (anti pSPS Ab recognition)” value in the test with SPS domain is reported as “phosphorylated on its SPS domain”. In addition, the subcellular localization result with CHO cells is listed as “nuclear localization”.
